# Residue numbers refer to the chain shown, from its start. Marks after values point to notes of the source that are not given here.
# T1: Murine CTGF (Mus musculus, UniProt P29268)
# T1 construct: purchased Abbexa
# T1 sequence (P29268 26-348): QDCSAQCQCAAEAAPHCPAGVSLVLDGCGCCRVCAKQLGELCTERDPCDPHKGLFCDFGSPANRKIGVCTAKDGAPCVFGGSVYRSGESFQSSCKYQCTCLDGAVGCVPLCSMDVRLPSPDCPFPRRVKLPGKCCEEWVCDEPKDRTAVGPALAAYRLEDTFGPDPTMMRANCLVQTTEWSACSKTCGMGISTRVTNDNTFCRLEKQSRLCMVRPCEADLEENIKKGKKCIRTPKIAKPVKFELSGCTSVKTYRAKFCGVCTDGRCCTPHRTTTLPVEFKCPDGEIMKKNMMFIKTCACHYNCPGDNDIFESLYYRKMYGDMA
# T2: CTGF (Homo sapiens, UniProt P29279)
# T2 sequence (P29279 27-349): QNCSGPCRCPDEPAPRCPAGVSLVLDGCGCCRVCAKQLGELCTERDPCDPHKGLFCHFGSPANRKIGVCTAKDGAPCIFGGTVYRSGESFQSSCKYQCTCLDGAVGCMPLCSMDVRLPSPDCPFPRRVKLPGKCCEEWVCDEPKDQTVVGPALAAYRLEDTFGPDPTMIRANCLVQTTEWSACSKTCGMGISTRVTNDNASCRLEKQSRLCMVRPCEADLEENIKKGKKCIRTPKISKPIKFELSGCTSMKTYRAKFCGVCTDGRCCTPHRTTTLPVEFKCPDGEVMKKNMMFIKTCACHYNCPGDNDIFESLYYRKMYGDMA
# B1: SEQ ID NO: 3: parent CTGF-binding hNGAL lipocalin mutein (protein)
# chain: QDSTSDLIPAPPLSKVPLQQNFQDNQFHGKWYVVGRAGNNRLREDKDPPKMWATIYELKEDKSYNVTHVHFMTKKCRYIIDTFVPGSQPGEFTLGAIKSGPGMTSPLVRIVSTNYNQHAMVFFKWVNQNREWFTITLYGRTKELTSELKENFIRFSKSLGLPENHIVFPVPIDQCIDG
# modifications: lipocalin mutein
# B2: SEQ ID NO: 23: optimized CTGF-binding hNGAL lipocalin mutein (protein)
# chain: QDSTSDLIPAPPLSKVPLQQNFQDNQFQGKWYVVGVAGNAILRPDKQPAKMFATIYELKEDKSYDVTSVRFEAKSCKYTIKTFVPGSQPGEFTSGQIKSAPGQTSTLVRVVSTNYNQHAMVFFKHVSQNREIFVITLYGRTKELTSELKENFIRFSKSLGLPENHIVFPVPIDQCIDG
# modifications: lipocalin mutein
# B3: SEQ ID NO: 15: optimized CTGF-binding hNGAL lipocalin mutein (protein)
# chain: B2 chain with V36L, P44E, S94A, Q96Y, S127T
# modifications: lipocalin mutein
# B4: SEQ ID NO: 9: parent CTGF-binding hNGAL lipocalin mutein (protein)
# chain: B2 chain with Q28H, V36L, A40K, P44I, K74R, K77S, S94A, Q96N, I132T
# modifications: lipocalin mutein
# B5: SEQ ID NO: 74: fusion protein comprising two CTGF-binding lipocalin muteins (protein)
# chain: QDSTSDLIPAPPLSKVPLQQNFQDNQFQGKWYVVGLAGNAILREDKQPAKMFATIYELKEDKSYDVTSVRFEAKSCKYTIKTFVPGSQPGEFTAGYIKSAPGQTSTLVRVVSTNYNQHAMVFFKHVTQNREIFVITLYGRTKELTSELKENFIRFSKSLGLPENHIVFPVPIDQCIDGGGGGSGGGGSGGGGSQDSTSDLIPAPPLSKVPLQQNFQDNQFQGKWYVVGWAGNVKLREDKQPQKMSATIYELKEDKSYDVTEVVFEQKKCHYIIKTFVPGSQPGEFTAGDIKSPPGYTSSLVRVVSTNYNQHAMVFFKKVSQNREFFWITLYGRTKELTSELKENFIRFSKSLGLPENHIVFPVPIDQCIDG
# modifications: fusion protein
# B6: SEQ ID NO: 7: parent CTGF-binding hNGAL lipocalin mutein (protein)
# chain: QDSTSDLIPAPPLSKVPLQQNFQDNQFHGKWYVVGLAGNYGLRTDKRPSKMFATIYELKEDKSYDVTSVRFEQERCHYTIRTFVPGSQPGEFTTGSIKSRPGQTSSLVRVVSTNYNQHAMVFFKSVIQNREYFAITLYGRTKELTSELKENFIRFSKSLGLPENHIVFPVPIDQCIDG
# modifications: lipocalin mutein
# Legend:
# Murine CTGF = molecular target: T1, Murine CTGF; test: SPR binding kinetics and affinity, murine CTGF; set-up: key to Murine CTGF kon / Murine CTGF koff / Murine CTGF KD: B binding without determination of kinetics constants; details: 25° C., 1:1 binding model
# Procedure, shortened: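 Targets either amine-coupled to CM5 chip (300–1100 RU; Fc-tagged human, untagged rat/murine) or Fc-captured via anti-human IgG; muteins injected 180 s contact, 900–3600 s dissociation, 30 μL/min, 25° C. Double-referenced sensorgrams fit to 1:1 model giving kon, koff and KD.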
# Mouse lung PK = assay type: in vivo; details: mice
# Experimental: The lipocalin mutein (100 μg/mouse) was oropharyngeally administered to mice, and exposure in different compartments was measured after 2, 4, 8 and 24 h by ELISA (FIG. 7A). 100 μg of the antibody were administered to mice via intravenous infusion, and exposure was measured after 1, 8, 24 and 96 h by ELISA (FIG. 7B).
# CTGF = molecular target: T2, CTGF; test: ELISA-based competition assay with anti-CTGF antibody; assay type: binding; details: data not shown
# [1] = Nebulization behavior, droplet size distribution by laser diffraction; assay type: physicochemical; details: vibrating mesh nebulizer, Malvern Spraytec
# Experimental: The suitability of the CTGF-targeting lipocalin muteins and fusion proteins disclosed herein for administration via inhalation was tested using a commercially available vibrating mesh nebulizer (Philips InnoSpire Go®). Droplet size distribution was characterized by laser diffraction using the nebulizer in conjunction with Malvern Spraytec and inhalation cell.
# Representative data for the exemplary CTGF-targeting lipocalin mutein of SEQ ID NO: 23 (A) and for the fusion protein of SEQ ID NO: 74 (B) are shown in FIG. 5 and below Table 10. […] Nebulization of the lipocalin muteins and fusion proteins had no negative impact on the stability and activity of the molecules (data not shown).
# cynomolgus CTGF = test: SPR binding kinetics and affinity, cynomolgus CTGF; set-up: key: B binding without determination of kinetics constants; details: 25° C., 1:1 binding model
# Experimental: Surface plasmon resonance (SPR) was used to measure binding kinetics and affinity of the representative lipocalin muteins disclosed herein.
# The binding of exemplary lipocalin muteins to human (Creative Biomart), cynomolgus, rat (R&D Systems) and mouse CTGF (Abbexa) was determined by SPR using a Biacore instrument (Cytiva, formerly GE Healthcare). Some targets were fused to a human IgG1 Fc tag, and captured via the anti-human IgG antibody kit, others were directly immobilized.
# For some measurements, human CTGF with a human IgG1 Fc Tag or rat or murine CTGF without a tag were directly immobilized to a CM5 Chip. The carboxyl groups on the chip were activated using 1-ethyl-3-(3-dimethylaminopropyl)-carbodiimide (EDC) and N-hydroxysuccinimide (NHS). Subsequently, the targets at a concentration of 3-5 μg/mL in 10 mM sodium acetate (pH) 4.5 were applied at a flow rate of 10 μL/min until an immobilization level of 300-1100 resonance units was achieved. Residual non-reacted NHS-esters were blocked by passing a solution of 1 M ethanolamine across the surface. The reference channel was activated/deactivated. For the capture setting, targets with an IgG Fc Tag at 0.25-2.5 μg/mL in HBS-EP+ buffer were captured by the anti-human IgG-Fc antibody at the chip surface for 180 s at a flow rate of 10 μL/min.
# The binding assay was carried out with a contact time of 180 s, a dissociation time of 900-3600 s and a flow rate of 30 μL/min. All measurements were performed at 25° C. […] For the directly immobilized targets, the same regeneration conditions were used. Prior to the protein measurements, three startup cycles were performed for conditioning purposes. Data were evaluated with Biacore Evaluation software. Double referencing was used and the 1:1 binding model was used to fit the raw data.
# The values determined for kon, koff and the resulting equilibrium dissociation constant (KD) for exemplary lipocalin muteins are summarized in Table 4.
# [2] = system: TGF-β1-stimulated normal human lung fibroblasts (NHLFs); test: Binding to activated human lung fibroblasts; assay type: cell-based; details: 24 h incubation with 10 ng/ml TGF-β1; immunofluorescence of lipocalin scaffold
# Experimental: Binding of the CTGF-targeting lipocalin muteins and fusion proteins disclosed herein to CTGF-expressing, TGF-β1-stimulated normal human lung fibroblasts (NHLFs) was tested by incubating NHLFs for 24 h with constructs and 10 ng/ml TGF-β1, which induces CTGF expression. NHLFs without TGF-β1 stimulation were included as negative control. Constructs were detected with a secondary antibody against the lipocalin scaffold coupled to AlexaFluor647 after NHLFs were fixed in 4% PFA and blocked with 5% BSA. Images were acquired on the Cytation5 Reader (Biotek). Signals were quantified in Gene5 software and normalized to the respective controls. For the experiments, cells were grown under conditions that facilitate pseudo-3D extracellular matrix deposition as described by Good et al. (Good et al., BMC Biomed Eng, 1:14 (2019)).
# Representative data are shown in FIG. 4 and illustrate the ability of the CTGF-targeting lipocalin muteins and fusion proteins disclosed herein to bind to activated human lung fibroblasts expressing CTGF in a concentration-dependent manner.
# [3] = mutein 100 μg oropharyngeal, antibody 100 μg intravenous, compartment of administration set to 100%
# cynomolgus CTGF, sequence (as listed by the source): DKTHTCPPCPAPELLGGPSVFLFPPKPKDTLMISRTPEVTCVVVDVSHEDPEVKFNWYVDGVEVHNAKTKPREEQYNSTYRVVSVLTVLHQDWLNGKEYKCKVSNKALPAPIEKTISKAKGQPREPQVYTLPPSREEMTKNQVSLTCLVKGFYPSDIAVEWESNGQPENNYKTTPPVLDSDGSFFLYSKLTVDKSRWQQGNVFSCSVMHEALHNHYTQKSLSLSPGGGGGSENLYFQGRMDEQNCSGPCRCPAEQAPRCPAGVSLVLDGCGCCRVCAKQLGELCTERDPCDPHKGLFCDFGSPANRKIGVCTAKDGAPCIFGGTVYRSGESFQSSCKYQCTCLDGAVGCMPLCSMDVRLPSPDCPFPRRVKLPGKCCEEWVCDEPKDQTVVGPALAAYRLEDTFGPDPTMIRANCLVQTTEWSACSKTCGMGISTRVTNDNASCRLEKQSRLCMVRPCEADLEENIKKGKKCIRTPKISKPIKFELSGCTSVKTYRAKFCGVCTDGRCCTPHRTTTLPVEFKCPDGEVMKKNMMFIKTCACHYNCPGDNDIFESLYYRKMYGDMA
Molecule,Murine CTGF KD (Murine CTGF),Murine CTGF koff (Murine CTGF),Murine CTGF kon (Murine CTGF),% V < 1 μm [1] [%],% V < 5 μm [1] [%],% V < 10 μm [1] [%],Dv10 [1] [μm],Dv50 [1] [μm],Dv90 [1] [μm],cynomolgus CTGF koff (cynomolgus CTGF),cynomolgus CTGF kon (cynomolgus CTGF),Binding to TGFβ-activated NHLFs [2],further results
B1,B,B,B,,,,,,,,,,
B2,B,B,B,1.874,68.97,93.55,1.4,3.5,8.6,B,B,binding,"Exposure in the lung (Mouse lung PK; 100 μg/mouse oropharyngeal, 2-24 h, ELISA): significant exposure in the lung over 24 h; Lung exposure compared to plasma (Mouse lung PK; [3]): 100* %; Plasma exposure compared to lung (Mouse lung PK; [3]): approx. 1%; Plasma exposure compared to lung (Mouse lung PK; mutein 100 μg oropharyngeal, antibody 100 μg intravenous, compartment of administration set to 100%, listed as 23): 0.9%; Competition with antibody of SEQ ID NOs: 60 and 61 for binding to CTGF (CTGF): competed with the antibody; Dv10 ([1]; listed as 23): 1.471 μm; Dv50 ([1]; listed as 23): 3.484 μm; Dv90 ([1]; listed as 23): 8.622 μm; cynomolgus CTGF KD (cynomolgus CTGF): B"
B3,,4.51e-05 s⁻¹,129000 M⁻¹ s⁻¹,,,,,,,7.57e-05 s⁻¹,107000 M⁻¹ s⁻¹,,
B4,,0.000832 s⁻¹,133000 M⁻¹ s⁻¹,,,,,,,,,,Kd (Murine CTGF): 6.26 nM
B5,,,,0.984,54.81,88.4,1.8,4.6,10.5,,,binding,Dv10 ([1]; listed as 74): 1.824 μm; Dv50 ([1]; listed as 74): 4.589 μm
B6,B,B,B,,,,,,,,,,

# — patent US20240228562A1, “NOVEL LIPOCALIN MUTEINS SPECIFIC FOR CONNECTIVE TISSUE GROWTH FACTOR (CTGF)” (PIERIS PHARMACEUTICALS GMBH, priority 2021, published 2024)
